Assay results reported in patent US9540428B2, “Extracellular matrix heparin-binding domains” (EPFL-TTO, priority 2012, dated 2017).

B1: TNC III1-5: recombinant tenascin C fibronectin type III repeats 1-5 (E622 to A1074) with transglutaminase substrate NQEQVSPL and 6×His tag, SEQ ID NO:1 (protein)
chain: METDTLLLWVLLLWVPGSTGDAAQPAIEGRNQEQVSPLGGSEVSPPKDLVVTEVTEETVNLAWDNEMRVTEYLVVYTPTHEGGLEMQFRVPGDQTSTIIQELEPGVEYFIRVFAILENKKSIPVSARVATYLPAPEGLKFKSIKETSVEVEWDPLDIAFETWEIIFRNMNKEDEGEITKSLRRPETSYRQTGLAPGQEYEISLHIVKNNTRGPGLKRVTTTRLDAPSQIEVKDVTDTTALITWFKPLAEIDGIELTYGIKDVPGDRTTIDLTEDENQYSIGNLKPDTEYEVSLISRRGDMSSNPAKETFTTGLDAPRNLRRVSQTDNSITLEWRNGKAAIDSYRIKYAPISGGDHAEVDVPKSQQATTKTTLTGLRPGTEYGIGVSAVKEDKESNPATINAATELDTPKDLQVSETAETSLTLLWKTPLAKFDRYRLNYSLPTGQWVGVQLPRNTTSYVLRGLEPGQEYNVLLTAEKGRHKSKPARVKASTEQAGGGSHHHHHH
modifications: Tenascin III signal sequence with polyhistidine tag
B2: Fg β15-66: heparin-binding domain of human fibrinogen β chain aa15-66 (SEQ ID NO:8); construct with TG substrate and His tag, SEQ ID NO:2 (protein)
chain: GSNQEQVSPLGHRPLDKKREEAPSLRPAPPPISGGGYRARPAKAAATQKKVERKAPDAGGCGHHHHHH
modifications: GS linker, transglutaminase substrate, the Fg beta15-66, with a Histidine tag

Assays:
PDGF-AA = PDGF-AA (Homo sapiens, UniProt P04085); test: ELISA binding to coated PDGF-AA; conditions: 50 nM cytokine coated
Procedure: ELISA plates were coated with cytokines or BSA and further incubated with TNC III1-5 to analyze binding of TNC III1-5 to a wide variety of cytokines. […] Results are depicted in FIG. 3. Method: 50 nM of cytokine was coated for (1 hr, 37° C.). After blocking with 2% BSA (1 hr, RT). 100 nM TNC III1-5 was applied in PBST (0.05% tween, 0.1% bovine serum albumin (BSA)) (1 hr, RT). TNC III1-5 was detected with horseradish peroxidase (HRP)-anti-HIS in PBST (1 hr, RT) and developed with 3,3′,5,5′-tetramethylbenzidine (TMB), a soluble colorimetric HRP […]. Addition of sulfuric acid stop solution changes the color to yellow, enabling accurate measurement of the intensity at 450 nm using a spectrophotometer or plate reader. […] Heparin (4 μM) was added to TNC III1-5 to test the effect of blocking the heparin binding site of TNC III1-5, which has been defined as domain TNC III5 (Weber, Zimmermann, et al., 1995).

skin wounds = test: Full-thickness back-skin wound healing in diabetic mice; type: in vivo; conditions: TG-PEG gels functionalized with TG-Fg β15-66 delivering FGF-2 and PlGF-2; 10 days
Procedure: Method: Full-thickness back-skin wounds were treated with combined FGF-2 and PlGF-2. Seven groups were tested: treatment (no ECM); fibrin only; fibrin containing cytokines; PEG only, PEG containing cytokines; PEG functionalized with TG-Fg β15-66, and PEG functionalized with TG-Fg β15-66 containing cytokines. After 10 days, wound closure and granulation tissue area were evaluated by histology. FIG. 20 details the results.

HUVEC cells = test: HUVEC proliferation with cytokines with or without fibrinogen or Fg β15-66; type: cell-based, human; conditions: 72 hours; ≧100-fold molar excess; VEGF-A165, PlGF-2, FGF-2
Procedure: To verify that cytokines bound to Fg β15-66 are still bioactive, the proliferation of HUVEC cells was tested for different cytokines with and without the presence of Fg β15-66. Method: HUVEC cells were stimulated with various cytokines: VEGF-A165, PlGF-2, and FGF-2 with or without fibrinogen or Fg β15-66 in excess (≧100-fold molar excess).

Molecule	binding to PDGF-AA (ELISA, signal above BSA background) (PDGF-AA)	skin-wound healing (skin wounds)	synergistic effect on HUVEC proliferation, cytokines plus protein vs cytokines alone (HUVEC cells)
B1	positive binding		
B2		enhanced skin-wound healing	no synergistic effect
